In article PMC6547619 (2019) one finds Kd data, which are given here for three molecules.

To fix the notation:
B1: E. coli rBAG3 (Abcam) (natural protein)
chain: not shown
B2: BAG3-H4L2 (antibody, V domains shown)
VH: EVQLVQSGAEVKKPGATVKISCKVSGFNIKDTYMYWVQQAPGKGLEWMGGVDPANGNTRYDPKFQGRVTITADTSTDTAYMELSSLRSEDTAVYYCARDGAMDYWGQGTLVTVSS
VL: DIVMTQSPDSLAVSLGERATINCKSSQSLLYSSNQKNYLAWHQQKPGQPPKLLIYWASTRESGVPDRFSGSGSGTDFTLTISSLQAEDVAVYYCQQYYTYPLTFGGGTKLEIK
B3: BAG3-H2L4 (antibody, V domains shown)
VH: QVQLVQSGAEVKKPGASVKVSCKASGFNIKDTYMYWVRQAPGQGLEWMGGVDPANGNTRYDPKFQGRVTLTRDTSTSTVYMELSSLRSEDTAVYYCGRDGAMDYWGQGTLVTVSS
VL: DIVMTQSPDSLAVSLGERATMSCKSSQSLLYSSNQKNYLAWHQQKPGQPPKLLIYWASTRESGVPDRFSGSGSGTDFTLTISSLQAEDLAIYYCQQYYTYPLTFGAGTKLEIK

Among the targets are BAG3-H2L2; BAG3-H2L3; BAG3-H1L4; BAG3-H3L4; BAG3-H4L3; BAG3-H3L3; BAG3-H1L2; BAG3-H4L4; BAG3-H1L3; BAG3-H3L2.
What all share (experiment): SPR
The test “E. coli rBAG3 (Abcam)” deals with B1.

The term Kd denotes the free concentration of one partner at which half of the binding sites on the other are occupied at equilibrium, for simple one-to-one binding. Take B1: the Kd was 2.63 nM with BAG3-H2L2; 1.98 nM with BAG3-H2L3; 2.34 nM with BAG3-H1L4; 1.7 nM in the test with BAG3-H3L4; 1.98 nM with BAG3-H4L3; 1.61 nM with BAG3-H3L3. Further, the Kd with BAG3-H1L2 came out at 2.84 nM; with BAG3-H4L4, 1.72 nM; with BAG3-H1L3 it was 2.83 nM; with BAG3-H3L2 it was 1.78 nM.

In the test with E. coli rBAG3 (Abcam), B2 yielded a Kd of 2.02 nM.

B3 had a Kd with E. coli rBAG3 (Abcam) of 2.04 nM.
